Target: wasl_mouse Wasl (UniProt Q91YD9)
Sequence (Q91YD9 whole entry): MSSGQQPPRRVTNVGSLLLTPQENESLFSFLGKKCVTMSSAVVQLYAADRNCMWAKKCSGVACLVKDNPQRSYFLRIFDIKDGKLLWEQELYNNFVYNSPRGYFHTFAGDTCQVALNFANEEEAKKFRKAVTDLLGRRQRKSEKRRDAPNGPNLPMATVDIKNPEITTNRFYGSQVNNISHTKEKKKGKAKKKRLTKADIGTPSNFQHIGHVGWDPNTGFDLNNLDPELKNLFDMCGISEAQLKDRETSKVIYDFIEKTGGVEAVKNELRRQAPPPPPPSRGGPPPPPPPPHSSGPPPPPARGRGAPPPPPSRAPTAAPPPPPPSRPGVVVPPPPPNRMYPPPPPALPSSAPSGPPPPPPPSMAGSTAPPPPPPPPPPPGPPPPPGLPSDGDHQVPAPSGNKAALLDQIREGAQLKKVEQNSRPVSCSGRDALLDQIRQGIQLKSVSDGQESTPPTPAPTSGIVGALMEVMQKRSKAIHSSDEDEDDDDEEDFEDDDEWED

Sequence of Src substrate cortactin (Mus musculus), Q60598 W525L (Q60598 whole entry W525L): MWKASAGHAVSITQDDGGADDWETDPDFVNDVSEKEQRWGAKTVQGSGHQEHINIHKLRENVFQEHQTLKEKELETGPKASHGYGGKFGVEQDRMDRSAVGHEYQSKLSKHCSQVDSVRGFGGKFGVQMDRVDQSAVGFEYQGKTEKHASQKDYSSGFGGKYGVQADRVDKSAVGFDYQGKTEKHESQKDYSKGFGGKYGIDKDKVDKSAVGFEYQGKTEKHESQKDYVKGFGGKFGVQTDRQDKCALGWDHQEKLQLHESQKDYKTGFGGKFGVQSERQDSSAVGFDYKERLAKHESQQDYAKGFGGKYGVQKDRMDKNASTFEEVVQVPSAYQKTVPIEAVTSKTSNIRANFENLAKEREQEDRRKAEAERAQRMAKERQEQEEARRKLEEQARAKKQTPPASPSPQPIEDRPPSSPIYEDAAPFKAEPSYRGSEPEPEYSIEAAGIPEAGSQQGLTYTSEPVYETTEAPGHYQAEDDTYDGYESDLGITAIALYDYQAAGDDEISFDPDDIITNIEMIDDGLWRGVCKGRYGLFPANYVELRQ

Src substrate cortactin (Mus musculus), Q60598 W525L
effect of a mutation on the interaction: disrupting interaction

From IntAct's records for PubMed 15585574
